Test results: patent publication US11834499

Columns and labels:
CD16A [1] = biological target: CD16A (UniProt P08637); experiment: flow cytometry, 2ug/reaction; Jurkat-Lucia-NFAT-CD16 cells; anti-his 2o only 18,863.83
[2] = biological target: human Claudin-18.2 (CLDN18.2) (human); experiment: flow cytometry; HUPT4 (CLDN18.2+); only anti-his 2o AF647 652513 12,046.33; same construct on ARK2 (CLDN18.2-) 39,787.16 (2o only 36,416.11)
CD16A [3] = biological target: CD16A (UniProt P08637); experiment: flow cytometry; Jurkat Lucia CD16A; only anti-his 2o AF647 652513 7,290.88
[4] = biological target: human Claudin-18.2 (CLDN18.2) (human); experiment: flow cytometry, 2ug/reaction, trypsin to detach cells; HUPT4 cells; anti-his 2o only 12,730.43; same construct on ARK2 cells 37,777.38 (2o only 35,124.48)
CD3 on Jurkat cells = CD3 on Jurkat cells (UniProt P07766); experiment: flow cytometry, Jurkat cells, anti-His secondary; A01 Jurkat-2o alone 1,501.76
CD3 on Jurkat cells, sequence (P07766 23-207 limits assumed): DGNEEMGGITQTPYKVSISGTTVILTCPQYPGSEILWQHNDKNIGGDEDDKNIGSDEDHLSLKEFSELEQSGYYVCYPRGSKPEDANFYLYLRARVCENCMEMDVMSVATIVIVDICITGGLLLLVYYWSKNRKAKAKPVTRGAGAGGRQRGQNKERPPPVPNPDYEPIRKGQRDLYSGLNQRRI

CD16A, sequence (P08637 17-254 limits assumed, form in doubt): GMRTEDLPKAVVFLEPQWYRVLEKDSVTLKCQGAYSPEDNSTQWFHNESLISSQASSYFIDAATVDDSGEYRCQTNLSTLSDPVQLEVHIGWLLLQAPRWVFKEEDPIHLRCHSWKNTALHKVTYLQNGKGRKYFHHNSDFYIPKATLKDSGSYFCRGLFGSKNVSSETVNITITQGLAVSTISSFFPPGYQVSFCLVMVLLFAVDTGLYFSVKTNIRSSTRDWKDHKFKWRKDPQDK

| flow cytometry signal (CD16A [1]) | flow cytometry signal [2] | flow cytometry signal (CD16A [3]) | flow cytometry signal [4] | FL4-H value printed beside the legend (CD3 on Jurkat cells) | Substance |
| --- | --- | --- | --- | --- | --- |
| 76500 | 8940 | 23500 | 15700 | – | AFM13 (CD16A-CD30 BiTE) his tagged (bispecific antibody) |
| – | – | – | – | 16300 | Blincyto-His tag (bispecific antibody) |
